Publication PMC9746415 (Human Vaccines & Immunotherapeutics, 2022)

Format: physicochemical
Details: pH 7.4

In-house rituximab
SEC-HPLC % mAb Monomer: 99.2%
